T1: CHO hOPGL 140 (human, UniProt O14788)
T1 chain: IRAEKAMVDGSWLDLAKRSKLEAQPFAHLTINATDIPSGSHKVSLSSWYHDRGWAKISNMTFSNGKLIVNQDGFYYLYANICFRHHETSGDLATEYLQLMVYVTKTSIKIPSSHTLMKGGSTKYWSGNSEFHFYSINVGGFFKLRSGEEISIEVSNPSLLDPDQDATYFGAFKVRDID

T2: E. coli mOPGL 158 (mouse, UniProt O35235)
T2 chain: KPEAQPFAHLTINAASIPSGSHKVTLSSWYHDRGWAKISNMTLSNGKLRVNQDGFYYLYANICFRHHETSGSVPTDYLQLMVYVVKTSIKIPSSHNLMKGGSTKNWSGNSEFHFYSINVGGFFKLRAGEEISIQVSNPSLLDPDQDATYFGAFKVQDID

T3: FLAG-murine OPGL[158-316]/DE (mouse, UniProt O35235)
T3 chain: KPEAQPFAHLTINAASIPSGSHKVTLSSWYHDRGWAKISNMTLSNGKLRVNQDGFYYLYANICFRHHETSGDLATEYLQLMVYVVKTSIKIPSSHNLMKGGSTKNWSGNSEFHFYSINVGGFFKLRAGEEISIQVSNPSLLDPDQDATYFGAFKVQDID


Tests used:
CHO hOPGL 140 = molecular target: T1, CHO hOPGL 140; assay: SPR
E. coli mOPGL 158 [1] = molecular target: T2, E. coli mOPGL 158; assay: ELISA
E. coli mOPGL 158 [2] = molecular target: T2, E. coli mOPGL 158; assay: SPR
[3] = molecular target: T3, FLAG-murine OPGL[158-316]/DE; assay: ELISA

Kd (CHO hOPGL 140)	binding result (E. coli mOPGL 158 [1])	binding result (E. coli mOPGL 158 [2])	binding result [3]	Binder
0.092 nM	no binding	–	–	2D8 (antibody, V domains shown) VH: EVQLVQSGGGLVHPGGSLRLSCAGSGFTFSSYGMHWVRQAPGKGLEWVSGIGTGGGTYYADSVKGRFTISRDNVKNSLYLQMNSLRAEDMAVYYCARKNWGWFDYWGQGTLVTVSS VL: EIVLTQSPATLSLSPGERATLSCRASQSISSYLAWYQQKPGQAPRLLIYDASNRATGIPARFSGSGSGTDFTLTISSLEPEDFAVYYCQQRSKWPPYTFGQGTKLEIKR
0.0633 nM	–	no binding	–	16E1 (antibody, V domains shown) VH: EVQLVQSGGGLVHPGGSLRLSCAGSGFTFSGHALHWVRQAPGKGLEWVSGIGTHGGTYYADSVKGRFTISRDNAKNSLFLQMNSLSAEDMAVYYCTRRNWGQFDYWGQGTLVTVSS VL: EIVLTQSPATLSLSPGERATLSCRASQSVSSYLAWYQQKPGQAPRLLIYDASNRATGIPARFSGSGSGTDFTLTISSLEPEDFAVYYCQQRSNWPPYTFGQGTKLEIKR
0.193 nM	–	no binding	–	9H7 (antibody, V domains shown) VH: EVQLVQSGGGLVHPGGSLRLSCEGSGFTFSSNGMHWVRQTPGKGLEWVSGIGTAGGTYYADSVKGRFTISRDNVKKSLYLQMNSLRAEDMAIYYCVRKDWGWFDPWGQGALVTVSS VL: EIVLTQSPATLSLSPGERATLSCRASQSISSYLAWYQQKPGQAPRLLIYDASNRATGIPARFSGSGSGTDFTLTISSLEPEDFAVYYCQQRSKWPPYTFGQGTKLEIKR
0.0337 nM	–	no binding	–	22B3 (antibody, V domains shown) VH: EVQLVQSGGGLVHPGGSLRLSCEGSGFTFSSNGMHWVRQTPGKGLEWVSGIGTAGGTYYADSVKGRFTISRDNVKKSLYLQMNSLRAEDMAIYYCVRKNWGWFDPWGQGALVTVSS VL: EIVLTQSPATLSLSPGERATLSCRASQSVNSYLAWFQQKPGQAPRLLIYDASNRATGIPARFSGSGSGTDFTLTISSLEPEDFAIYYCQQRSNWPPFTFGQGTKLEIKR
0.211 nM	no binding	–	no binding	18B2 (antibody, V domains shown) VH: EVQLVQSGGGLVHPGGSLRLSCVGSRFTFSAYPMHWVRQAPGKGLEWVSGIGSGGGTNYADSVKGRFTISRDTAKNSLYLQMNSLRAEDMAVYYCARGRNSFDYWGQGTLVTVSS VL: DIQMTQSPSSLSASVGDRVTITCRASQGISTWLAWYQQKPEKAPKSLIYAASSLQSGVPSRFSGSGSGTDFTLTISSLQPEDFATYYCQQYNSYPPTFGQGTKVEIKR
0.292 nM	–	no binding	no binding	2E11 (antibody, V domains shown) VH: EVQLVQSGGDLVHPGGSLRLSCVGSGFTFSHYPLHWVRQAPGKGLEWISGIHTGGGTYYTDSVKGRFTISSDNAKNSLYLQMNTLRAEDMAVYYCARGRNSFDYWGQGTLVIVSS VL: DIQMTQSPSSLSASVGDRVTITCRASQGISSWLAWYQQKPEKAPKSLIYAASSLQSGVPSRFSGSGSGTDFTLTISSLQSEDFATYYCQQYNSYPPTFGQGTRLEIKR

From patent publication US20100209435 (published 2010)
